For experiment [1], the target named is T1, human CTGF (antigen of the Biacore assays) (human, UniProt P29279 27-349).
T1 construct: also called antigen human CTGF; human CTGF protein
T1 sequence (looked up): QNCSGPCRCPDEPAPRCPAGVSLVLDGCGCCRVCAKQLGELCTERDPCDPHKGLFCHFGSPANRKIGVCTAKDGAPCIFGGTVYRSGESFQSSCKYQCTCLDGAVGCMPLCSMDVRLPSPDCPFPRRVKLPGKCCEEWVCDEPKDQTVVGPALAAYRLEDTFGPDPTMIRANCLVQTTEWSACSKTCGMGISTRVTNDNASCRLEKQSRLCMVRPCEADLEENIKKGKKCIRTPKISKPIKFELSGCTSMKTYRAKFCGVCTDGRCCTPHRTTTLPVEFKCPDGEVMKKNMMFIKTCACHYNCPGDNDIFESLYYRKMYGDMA
As to the kind of experiment: Biacore, antibody captured on Protein A, CTGF in flow, 1:1 fit. The text has this:
(§1) A certain amount of each of the test antibodies was affinity-captured with Protein A biosensor chip (Cat. # 29127556, GE), and then a certain concentration of human or mouse CTGF was allowed to flow through the surface of the chip. The reaction signals were detected in real time with Biacore instrument to generate a binding and dissociation curve. After the dissociation was completed in each cycle, the biosensor chip was washed and regenerated with Glycine-HCl regeneration solution pH 1.5 (Cat. # BR-1003-54, GE). The running buffer for the assay was 1×HBS-EP buffer solution (Cat. # BR-1001-88, GE).

Experiment [2] has as its target T2, mouse CTGF (antigen of the Biacore assay) (mouse, UniProt P29268 26-348).
T2 construct: also called mouse CTGF protein
T2 sequence (looked up): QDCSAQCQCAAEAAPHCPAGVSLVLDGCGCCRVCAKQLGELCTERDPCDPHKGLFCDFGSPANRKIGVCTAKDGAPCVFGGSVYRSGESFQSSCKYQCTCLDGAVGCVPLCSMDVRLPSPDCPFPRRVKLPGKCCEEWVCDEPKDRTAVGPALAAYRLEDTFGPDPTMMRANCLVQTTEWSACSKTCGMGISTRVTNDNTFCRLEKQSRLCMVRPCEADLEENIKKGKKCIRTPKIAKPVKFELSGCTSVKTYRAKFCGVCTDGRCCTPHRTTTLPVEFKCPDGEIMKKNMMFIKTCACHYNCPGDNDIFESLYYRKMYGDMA
As to the kind of experiment: Biacore, antibody captured on Protein A, mouse CTGF in flow, 1:1 fit.
Source text: as §1

B1: chimeric antibody Ch95 (antibody, human IgG1, kappa, V domains shown)
VH: EVLLQQSGPVLVKPGPSVKISCKASGFTFTNYDIHWVKQSHGKSLEWIGLVYPYNGGTAYNQKFKDKATLTFDTSSSTAYMELNSLTSEDSAVYYCARWGLIPGTTSYFDVWGTGTTVTVSS
VL: QIVLSQSPPILSASPGEKVTMTCRASSSVSYIHWYQQKPRSSPKPWIYATSNLASGVPARFSGSGSGTSYSLTISRVEAEDAATYYCQQWNSNPWTFGGGTRLEIKR
In experiment [1], B1 came in with a Kd of 3.85 nM, an off-rate (koff) of 0.0302 s⁻¹ and a kon of 7.85e+06 M⁻¹ s⁻¹. Moreover, in experiment [2], binding was characterised by a dissociation constant (Kd) of 1.71 nM, the koff is 0.0235 s⁻¹ and the on-rate (kon) was 1.38e+07 M⁻¹ s⁻¹.

B2: chimeric antibody Ch164 (antibody, human IgG1, lambda, V domains shown)
VH: QVQLKQSGPGLVQPSQSLSITCTVSGFSLTTFGVHWIRQSPGKGLEWLGVIWRRGGTDYNAAFMSRLSITKDNSRSHVFFKMTSLQTDDSAIYYCARDGGFDYWGQGTTLTVSS
VL: QAVVTQESALTTSPGGTVILTCRSSIGAVTTSNYANWVQEKPDHLFTGLIGGTSNRAPGVPVRFSGSLIGDKAALTITGAQAEDDAMYFCALWYSTHYVFGGGTKVTVLG
In experiment [1], B2 gave an equilibrium dissociation constant (Kd) of 0.133 nM, an off-rate (koff) of 0.00883 s⁻¹ and a kon of 6.62e+07 M⁻¹ s⁻¹. Besides, in experiment [2], the affinity, expressed as Kd, was 0.0822 nM; the koff was found to be 0.0101 s⁻¹; the on-rate (kon) turned out to be 1.23e+08 M⁻¹ s⁻¹.

B3: chimeric antibody Ch147 (antibody, human IgG1, kappa, V domains shown)
VH: EVQLVESGGGLVQPEGSLKLSCAASGFSFNTYAMNWVRQAPGKGLEWVARIRTKSNNYATYYADSVKDRFTISRDDSESMLYLQMNNLKTEDTAMYYCVETGFAYWDQGTLVTVSA
VL: QIVLTQSPAIMSASPGEKVTITCSASSSVSYMHWFQQKPGTSPKLWIYSTSNLASGVPARFSGSGSGTSYSLTISRMEAEDAATYYCQQRSSYPLTFGAGTKLELKR
In experiment [1], B3 displayed an equilibrium dissociation constant (Kd) of 0.466 nM, a dissociation rate constant (koff) of 0.00693 s⁻¹ and an on-rate constant (kon) of 1.49e+07 M⁻¹ s⁻¹. In experiment [2], the dissociation constant Kd was 1.23 nM, the off-rate (koff) is 0.0384 s⁻¹ and the on-rate (kon) came out at 3.12e+07 M⁻¹ s⁻¹.

B4: Hu95-41wk (antibody, human IgG1, kappa, V domains shown)
VH: EVQLVQSGAEVKKPGASVKVSCKASGFTFTNYDIHWVKQAPGQRLEWIGLVYPYNGGTAYNQKFKDKATLTFDTSASTAYMELSSLRSEDTAVYYCARWGLIPGTTSYFDVWGQGTTVTVSS
VL: EIVLTQSPATLSLSPGERATLSCRASSSVSYIHWYQQKPGQAPRPWIYATSNLASGIPARFSGSGSGTDYTLTISRLEPEDFAVYYCQQWNSNPWTFGGGTKVEIKR
In experiment [1], B4 registered a Kd of 5.29 nM, a koff of 0.0408 s⁻¹ and a kon of 7.7e+06 M⁻¹ s⁻¹. In experiment [2], this molecule displayed a dissociation constant Kd of 2.44 nM, a koff of 0.0339 s⁻¹ and an association rate constant (kon) of 1.39e+07 M⁻¹ s⁻¹.

B5: Hu95-21wk (antibody, human IgG1, kappa, V domains shown)
VH: EVQLVQSGAEVKKPGASVKVSCKASGFTFTNYDIHWVRQAPGQRLEWIGLVYPYNGGTAYNQKFKDRATLTFDTSASTAYMELSSLRSEDTAVYYCARWGLIPGTTSYFDVWGQGTTVTVSS
VL: EIVLTQSPATLSLSPGERATLSCRASSSVSYIHWYQQKPGQAPRPWIYATSNLASGIPARFSGSGSGTDYTLTISRLEPEDFAVYYCQQWNSNPWTFGGGTKVEIKR
In experiment [1], B5 had a dissociation constant (Kd) of 7.39 nM, a koff of 0.0303 s⁻¹ and a kon of 4.09e+06 M⁻¹ s⁻¹. In addition, in experiment [2], the affinity, expressed as Kd, was 3.99 nM; the koff came out at 0.0211 s⁻¹; the kon turned out to be 5.29e+06 M⁻¹ s⁻¹.

B6: Hu95-42wk (antibody, human IgG1, kappa, V domains shown)
VH: EVQLVQSGAEVKKPGASVKVSCKASGFTFTNYDIHWVKQAPGQRLEWIGLVYPYNGGTAYNQKFKDKATLTFDTSASTAYMELSSLRSEDTAVYYCARWGLIPGTTSYFDVWGQGTTVTVSS
VL: EIVLTQSPATLSLSPGERATLSCRASSSVSYIHWYQQKPGQSPRPWIYATSNLASGVPARFSGSGSGTSYTLTISRLEPEDFAVYYCQQWNSNPWTFGGGTKVEIKR
With B6, in experiment [1], binding was characterised by a dissociation constant (Kd) of 5.74 nM, the koff worked out at 0.0191 s⁻¹ and the kon was 3.32e+06 M⁻¹ s⁻¹. Also, in experiment [2], the equilibrium dissociation constant (Kd) stood at 2.42 nM, the koff was 0.0137 s⁻¹ and the kon was 5.66e+06 M⁻¹ s⁻¹.

B7: Hu95-31wk (antibody, human IgG1, kappa, V domains shown)
VH: EVQLVQSGAEVKKPGASVKVSCKASGFTFTNYDIHWVKQAPGQRLEWMGLVYPYNGGTAYNQKFKDKVTLTFDTSASTAYMELSSLRSEDTAVYYCARWGLIPGTTSYFDVWGQGTTVTVSS
VL: EIVLTQSPATLSLSPGERATLSCRASSSVSYIHWYQQKPGQAPRPWIYATSNLASGIPARFSGSGSGTDYTLTISRLEPEDFAVYYCQQWNSNPWTFGGGTKVEIKR
On to B7, for which, in experiment [1], the Kd came to 5.84 nM, the koff was found to be 0.0326 s⁻¹ and the kon was 5.59e+06 M⁻¹ s⁻¹. Also, in experiment [2], the Kd amounted to 2.87 nM, the dissociation rate constant (koff) is 0.0225 s⁻¹ and the kon came out at 7.84e+06 M⁻¹ s⁻¹.
